Assay results taken from paper PMC5156392, “Structure and Mechanism of Staphylococcus aureus TarS, the Wall Teichoic Acid β-glycosyltransferase Involved in Methicillin Resistance” (PLoS Pathogens, 2016).

Legend:
[1] = tested on: CC(=O)N[C@H]1[C@@H](OP(=O)(O)OP(=O)(O)OC[C@H]2O[C@@H](n3ccc(=O)[nH]c3=O)[C@H](O)[C@@H]2O)O[C@H](CO)[C@@H](O)[C@@H]1O; assay: purified protein; conditions: donor hydrolysis reaction without polyRboP acceptor; varied UDP-GlcNAc
[2] = molecular target: the molecule itself; assay: SEC-MALS; Superdex 200 HR 10/30, 30 mM Hepes pH 7.3, 500 mM NaCl, 5% glycerol; full-length TarS run at 25 μM
crystal structure = molecular target: the molecule itself; assay: crystal structure

TarS1-349 (Staphylococcus aureus subsp. aureus Mu50)
Km [1]: 21 ± 2 µM

full-length TarS (TarS 1-573; wild-type) (Staphylococcus aureus subsp. aureus Mu50)
Km [1]: 45 ± 3 µM

B1: Staphylococcus aureus TarS, full-length protein (1-573) (enzyme)
chain: MMKFSVIVPTYNSEKYITELLNSLAKQDFPKTEFEVVVVDDCSTDQTLQIVEKYRNKLNLKVSQLETNSGGPGKPRNVALKQAEGEFVLFVDSDDYINKETLKDAAAFIDEHHSDVLLIKMKGVNGRGVPQSMFKETAPEVTLLNSRIIYTLSPTKIYRTALLKDNDIYFPEELKSAEDQLFTMKAYLNANRISVLSDKAYYYATKREGEHMSSAYVSPEDFYEVMRLIAVEILNADLEEAHKDQILAEFLNRHFSFSRTNGFSLKVKLEEQPQWINALGDFIQAVPERVDALVMSKLRPLLHYARAKDIDNYRTVEESYRQGQYYRFDIVDGKLNIQFNEGEPYFEGIDIAKPKVKMTAFKFDNHKIVTELTLNEFMIGEGHYDVRLKLHSRNKKHTMYVPLSVNANKQYRFNIMLEDIKAYLPKEKIWDVFLEVQIGTEVFEVRVGNQRNKYAYTAETSALIHLNNDFYRLTPYFTKDFNNISLYFTAITLTDSISMKLKGKNKIILTGLDRGYVFEEGMASVVLKDDMIMGMLSQTSENEVEILLSKDIKKRDFKNIVKLNTAHMTYSLK
notes: also called full-length TarS; wild-type TarS; source: E. coli Rosetta (DE3), pET41b, purified (Heparin HP, Superdex 200)
stoichiometry N [2]: 3

B2: TarS_(217-573) (domain or fragment)
chain: VSPEDFYEVMRLIAVEILNADLEEAHKDQILAEFLNRHFSFSRTNGFSLKVKLEEQPQWINALGDFIQAVPERVDALVMSKLRPLLHYARAKDIDNYRTVEESYRQGQYYRFDIVDGKLNIQFNEGEPYFEGIDIAKPKVKMTAFKFDNHKIVTELTLNEFMIGEGHYDVRLKLHSRNKKHTMYVPLSVNANKQYRFNIMLEDIKAYLPKEKIWDVFLEVQIGTEVFEVRVGNQRNKYAYTAETSALIHLNNDFYRLTPYFTKDFNNISLYFTAITLTDSISMKLKGKNKIILTGLDRGYVFEEGMASVVLKDDMIMGMLSQTSENEVEILLSKDIKKRDFKNIVKLNTAHMTYSLK
notes: source: limited thermolysin proteolysis of purified full-length TarS (from E. coli Rosetta (DE3)), crystallised directly
binding result (crystal structure): binds
